Target: T1, nucleocapsid protein of SARS-CoV-2 expressed in HEK-293 cells (SARS-CoV-2, UniProt P0DTC9 1-419)
T1 construct: also called 293-NP; 293-NP cell lysates
Experiment: ELISA on HEK-293 lysate 293-NP (FIG. 3)

B1: NP-4 IgG (antibody, V domains shown)
VH: EVQLVESGGGLVQPGGSLRLSCAASGFTITNWWIHWVRQAPGKGLEWVAAISPFNGKTHYADSVKGRFTISADTSKNTAYLQMNSLRAEDTAVYYCARLLSIYDYWGQGTLVTVSS
VL: DIQMTQSPSSLSASVGDRVSITCRASQDVWYYVAWYQQKPGKAPKLLISRTNWLDSGVPSRFSGSGSGTDFTLTISSLQPEDFATYYCQQYSDYPLTFGQGTKVEIKR
binding result: binds

B2: NP-3 IgG (antibody, V domains shown)
VH: EVQLVESGGGLVQPGGSLRLSCAASGFTITDYGIHWVRQAPGKGLEWVAYIGPSDGDTHYADSVKGRFTISADTSKNTAYLQMNSLRAEDTAVYYCARTGGYNSWYMDYWGQGTLVTVSS
VL: DIQMTQSPSSLSASVGDRVTITCRASQDVNNWVAWYQQKPGKAPKLLIYFTSYLYSGVPSRFSGSGSGTDFTLTISSLQPEDFATYYCQQHSTYPFTFGQGTKVEIKR
binding result: binds

Source: patent US20210341478A1 (ANTAIMMU BIOMED, published 2021)
